Measured values: article PMC7187366
Like-named read-outs stand apart in the source and are kept apart here.

T1: OsPIL15 (Oryza sativa, UniProt Q0JNI9 1-637)
T1 sequence: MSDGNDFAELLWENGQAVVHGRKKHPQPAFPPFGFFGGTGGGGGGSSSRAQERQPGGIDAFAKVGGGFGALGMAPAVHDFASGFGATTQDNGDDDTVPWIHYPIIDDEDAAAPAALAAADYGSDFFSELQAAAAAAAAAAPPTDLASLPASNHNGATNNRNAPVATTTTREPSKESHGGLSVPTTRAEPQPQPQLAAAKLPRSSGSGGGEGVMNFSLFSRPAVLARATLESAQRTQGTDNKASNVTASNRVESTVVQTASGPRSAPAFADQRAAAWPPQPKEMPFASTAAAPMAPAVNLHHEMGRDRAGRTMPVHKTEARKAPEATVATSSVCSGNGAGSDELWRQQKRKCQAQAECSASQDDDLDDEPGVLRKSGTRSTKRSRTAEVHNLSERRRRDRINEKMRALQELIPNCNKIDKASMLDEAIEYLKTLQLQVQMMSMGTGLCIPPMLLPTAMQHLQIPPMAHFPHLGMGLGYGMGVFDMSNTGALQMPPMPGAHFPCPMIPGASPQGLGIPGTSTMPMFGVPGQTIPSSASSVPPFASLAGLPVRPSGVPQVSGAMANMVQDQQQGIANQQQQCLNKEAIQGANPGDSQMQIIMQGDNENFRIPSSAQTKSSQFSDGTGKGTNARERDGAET

B1: Probe Am (mutant G-boxes) (dsDNA)
DNA 1: TGATCTGACTTTAAACCGGTGACTTTCGCC
DNA 2: GGCGAAAGTCACCGGTTTAAAGTCAGATCA
B2: Probe Bm (mutant G-box) (dsDNA)
DNA 1: ATTTTCCTGACTTCACTATGACTTGTT
DNA 2: AACAAGTCATAGTGAAGTCAGGAAAAT

Key:
OsPIL15 [1] = molecular target: T1, OsPIL15; assay: competition
OsPIL15 [2] = molecular target: T1, OsPIL15; assay: competition; remark: listed apart in the source

Row | Binder | binding result (OsPIL15 [1]) | binding result (OsPIL15 [2])
1 | B1 | no binding | 
2 | B2 |  | no binding
